Experimental data reported in patent EP4257134A2 (Immunomedics, Inc., dated 2023).
One block for each molecule: values may come before it.

How the values were obtained:
[1] = target: Human trophoblast cell-surface antigen (Trop-2) (human) (UniProt P09758); test: cell binding assay on Trop-2-expressing cells
[2] = target: CD74 (invariant chain, Ii) (human) (UniProt P04233); test: cell binding to antigen-positive cells (cell line not given)
CD22 (human) [3] = target: CD22 (human) (UniProt P20273); test: flow cytometry with the unconjugated specific antibody, FITC goat anti-human IgG; REH cells (background 4.1)
CD22 (human) [4] = target: CD22 (human) (UniProt P20273); test: flow cytometry with the unconjugated specific antibody, FITC goat anti-human IgG; Raji cells (background 6.8)
CD22 (human) [5] = target: CD22 (human) (UniProt P20273); test: flow cytometry with the unconjugated specific antibody, FITC goat anti-human IgG; Jeko-1 cells (background 6.5)
CD22 (human) [6] = target: CD22 (human) (UniProt P20273); test: flow cytometry with the unconjugated specific antibody, FITC goat anti-human IgG; WSU-FSCCL cells (background 4.9)
CD22 (human) [7] = target: CD22 (human) (UniProt P20273); test: flow cytometry with the unconjugated specific antibody, FITC goat anti-human IgG; MN-60 cells (background 5.8)
CD22 (human) [8] = target: CD22 (human) (UniProt P20273); test: flow cytometry with the unconjugated specific antibody, FITC goat anti-human IgG; Ramos cells (background 4.1)
CD22 (human) [9] = target: CD22 (human) (UniProt P20273); test: flow cytometry with the unconjugated specific antibody, FITC goat anti-human IgG; 697 cells (background 4.2)
CD22 (human) [10] = target: CD22 (human) (UniProt P20273); test: flow cytometry with the unconjugated specific antibody, FITC goat anti-human IgG; RS4;11 cells (background 4.1)
CD22 (human) [11] = target: CD22 (human) (UniProt P20273); test: flow cytometry with the unconjugated specific antibody, FITC goat anti-human IgG; Daudi cells (background 5.9)
CEACAM6 (human) [12] = target: CEACAM6 (human) (UniProt P40199); test: flow cytometry, surface; HuH-7 cells (staining antibody not given)
Chain of CEACAM6 (human) (P40199 35-320): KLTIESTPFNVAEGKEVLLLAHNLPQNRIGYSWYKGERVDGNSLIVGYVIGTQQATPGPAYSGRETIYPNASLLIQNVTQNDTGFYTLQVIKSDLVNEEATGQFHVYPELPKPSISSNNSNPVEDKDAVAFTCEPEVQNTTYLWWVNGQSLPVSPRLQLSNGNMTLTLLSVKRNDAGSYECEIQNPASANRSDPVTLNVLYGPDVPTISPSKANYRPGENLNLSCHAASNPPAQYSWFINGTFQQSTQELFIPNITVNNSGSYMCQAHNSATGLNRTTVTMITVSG

CEACAM6 (human) [13] = target: CEACAM6 (human) (UniProt P40199); test: flow cytometry, surface; NCI-N87 cells (staining antibody not given)
CEACAM6 (human) [14] = target: CEACAM6 (human) (UniProt P40199); test: flow cytometry; Hep-G2 cells
[15] = target: CD74 (invariant chain, Ii) (human) (UniProt P04233); test: flow cytometry, surface only; A-375 cells (background 3, GAH-FITC only)
[16] = target: CD74 (invariant chain, Ii) (human) (UniProt P04233); test: flow cytometry, surface only; Capan-1 cells
[17] = target: CD74 (invariant chain, Ii) (human) (UniProt P04233); test: flow cytometry, surface and cytoplasmic (permeabilized cells); Hs746T
[18] = target: CD74 (invariant chain, Ii) (human) (UniProt P04233); test: flow cytometry, surface and cytoplasmic (permeabilized cells); Hs746T (background 5)
[19] = target: CD74 (invariant chain, Ii) (human) (UniProt P04233); test: flow cytometry, surface only; HuH-7 cells (background 5, GAH-FITC only)
[20] = target: CD74 (invariant chain, Ii) (human) (UniProt P04233); test: flow cytometry, surface and cytoplasmic (permeabilized cells); Raji (background 5)
[21] = target: CD74 (invariant chain, Ii) (human) (UniProt P04233); test: flow cytometry, surface and cytoplasmic (permeabilized cells); Capan-1 (background 5)
[22] = target: CD74 (invariant chain, Ii) (human) (UniProt P04233); test: flow cytometry, surface and cytoplasmic (permeabilized cells); A-375 (background 6)
[23] = target: CD74 (invariant chain, Ii) (human) (UniProt P04233); test: flow cytometry, surface and cytoplasmic (permeabilized cells); Raji
[24] = target: CD74 (invariant chain, Ii) (human) (UniProt P04233); test: flow cytometry, surface and cytoplasmic (permeabilized cells); Hep-G2
[25] = target: CD74 (invariant chain, Ii) (human) (UniProt P04233); test: flow cytometry, surface only; Raji cells
[26] = target: CD74 (invariant chain, Ii) (human) (UniProt P04233); test: flow cytometry, surface only; Capan-1 cells (background 12, GAH-FITC only)
[27] = target: CD74 (invariant chain, Ii) (human) (UniProt P04233); test: flow cytometry, surface and cytoplasmic (permeabilized cells); NCI-N87 (background 6)
[28] = target: CD74 (invariant chain, Ii) (human) (UniProt P04233); test: flow cytometry, surface and cytoplasmic (permeabilized cells); HuH-7
[29] = target: CD74 (invariant chain, Ii) (human) (UniProt P04233); test: flow cytometry, surface only; NCI-N87 cells
[30] = target: CD74 (invariant chain, Ii) (human) (UniProt P04233); test: flow cytometry, surface only; Raji cells (background 3, GAH-FITC only)
[31] = target: CD74 (invariant chain, Ii) (human) (UniProt P04233); test: flow cytometry, surface only; HuH-7 cells
[32] = target: CD74 (invariant chain, Ii) (human) (UniProt P04233); test: flow cytometry, surface only; Hep-G2 cells
[33] = target: CD74 (invariant chain, Ii) (human) (UniProt P04233); test: flow cytometry, surface only; Hs746T cells (background 8, GAH-FITC only)
[34] = target: CD74 (invariant chain, Ii) (human) (UniProt P04233); test: flow cytometry, surface only; NCI-N87 cells (background 4, GAH-FITC only)
[35] = target: CD74 (invariant chain, Ii) (human) (UniProt P04233); test: flow cytometry, surface and cytoplasmic (permeabilized cells); A-375
[36] = target: CD74 (invariant chain, Ii) (human) (UniProt P04233); test: flow cytometry, surface and cytoplasmic (permeabilized cells); Capan-1
[37] = target: CD74 (invariant chain, Ii) (human) (UniProt P04233); test: flow cytometry, surface and cytoplasmic (permeabilized cells); NCI-N87
[38] = target: CD74 (invariant chain, Ii) (human) (UniProt P04233); test: flow cytometry, surface only; Hs746T cells
[39] = target: CD74 (invariant chain, Ii) (human) (UniProt P04233); test: flow cytometry, surface and cytoplasmic (permeabilized cells); Hep-G2 (background 5)
[40] = target: CD74 (invariant chain, Ii) (human) (UniProt P04233); test: flow cytometry, surface only; A-375 cells
[41] = target: CD74 (invariant chain, Ii) (human) (UniProt P04233); test: flow cytometry, surface and cytoplasmic (permeabilized cells); HuH-7 (background 4)
[42] = target: CD74 (invariant chain, Ii) (human) (UniProt P04233); test: flow cytometry, surface only; Hep-G2 cells (background 6, GAH-FITC only)
CD20 (human) [43] = target: CD20 (human) (UniProt P11836); test: flow cytometry with the unconjugated specific antibody, FITC goat anti-human IgG; REH cells (background 4.1)
Chain of CD20 (human) (P11836 whole entry): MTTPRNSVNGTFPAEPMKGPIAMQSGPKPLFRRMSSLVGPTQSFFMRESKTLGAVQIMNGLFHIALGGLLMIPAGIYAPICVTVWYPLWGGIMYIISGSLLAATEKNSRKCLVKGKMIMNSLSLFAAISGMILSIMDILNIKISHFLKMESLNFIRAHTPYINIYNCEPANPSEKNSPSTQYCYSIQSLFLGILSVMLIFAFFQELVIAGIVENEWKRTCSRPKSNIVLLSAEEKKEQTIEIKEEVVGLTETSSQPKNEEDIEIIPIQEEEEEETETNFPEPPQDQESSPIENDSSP

CD20 (human) [44] = target: CD20 (human) (UniProt P11836); test: flow cytometry with the unconjugated specific antibody, FITC goat anti-human IgG; Raji cells (background 6.8)
CD20 (human) [45] = target: CD20 (human) (UniProt P11836); test: flow cytometry with the unconjugated specific antibody, FITC goat anti-human IgG; Jeko-1 cells (background 6.5)
CD20 (human) [46] = target: CD20 (human) (UniProt P11836); test: flow cytometry with the unconjugated specific antibody, FITC goat anti-human IgG; WSU-FSCCL cells (background 4.9)
CD20 (human) [47] = target: CD20 (human) (UniProt P11836); test: flow cytometry with the unconjugated specific antibody, FITC goat anti-human IgG; MN-60 cells (background 5.8)
CD20 (human) [48] = target: CD20 (human) (UniProt P11836); test: flow cytometry with the unconjugated specific antibody, FITC goat anti-human IgG; Ramos cells (background 4.1)
CD20 (human) [49] = target: CD20 (human) (UniProt P11836); test: flow cytometry with the unconjugated specific antibody, FITC goat anti-human IgG; 697 cells (background 4.2)
CD20 (human) [50] = target: CD20 (human) (UniProt P11836); test: flow cytometry with the unconjugated specific antibody, FITC goat anti-human IgG; RS4;11 cells (background 4.1)
CD20 (human) [51] = target: CD20 (human) (UniProt P11836); test: flow cytometry with the unconjugated specific antibody, FITC goat anti-human IgG; Daudi cells (background 5.9)
[52] = target: T1, Human trophoblast cell-surface antigen (Trop-2) (human, UniProt P09758 27-323); test: cell-based or functional assay
T1 sequence (looked up): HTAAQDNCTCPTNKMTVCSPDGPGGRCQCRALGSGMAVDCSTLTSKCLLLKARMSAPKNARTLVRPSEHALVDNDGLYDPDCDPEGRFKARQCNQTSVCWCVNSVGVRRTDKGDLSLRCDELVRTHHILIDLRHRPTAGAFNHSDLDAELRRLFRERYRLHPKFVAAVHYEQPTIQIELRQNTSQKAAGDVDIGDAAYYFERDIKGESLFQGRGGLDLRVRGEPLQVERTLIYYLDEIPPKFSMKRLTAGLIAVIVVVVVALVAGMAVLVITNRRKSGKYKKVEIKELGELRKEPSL

Chain of CD74 (invariant chain, Ii) (human) (P04233 whole entry, change not shown): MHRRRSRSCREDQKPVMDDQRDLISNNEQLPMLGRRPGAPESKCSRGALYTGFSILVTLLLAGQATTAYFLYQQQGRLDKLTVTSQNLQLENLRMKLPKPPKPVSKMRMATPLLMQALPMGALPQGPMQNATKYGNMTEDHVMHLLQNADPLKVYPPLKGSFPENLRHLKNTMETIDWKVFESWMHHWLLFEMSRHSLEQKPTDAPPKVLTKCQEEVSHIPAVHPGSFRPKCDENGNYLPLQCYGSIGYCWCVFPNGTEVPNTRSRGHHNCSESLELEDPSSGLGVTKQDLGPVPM

Molecule: hRS7-CL2A-SN-38 (antibody)
Kd [1]: 1.2 nM

Molecule: Epratuzumab (hLL2, humanized anti-CD22 IgG1, unconjugated) (antibody)
Median fluorescence (CD22 (human) [3]): 22.9
Median fluorescence (CD22 (human) [4]): 45.9
Median fluorescence (CD22 (human) [5]): 11.2
Median fluorescence (CD22 (human) [6]): 7.7
Median fluorescence (CD22 (human) [7]): 10.3
Median fluorescence (CD22 (human) [8]): 40.8
Median fluorescence (CD22 (human) [9]): 16
Median fluorescence (CD22 (human) [10]): 23.3
Median fluorescence (CD22 (human) [11]): 145

Molecule: hMN-15 (humanized anti-CEACAM6 IgG1, unconjugated) (antibody)
MFI (CEACAM6 (human) [12]): 81
MFI (CEACAM6 (human) [13]): 1120
MFI (CEACAM6 (human) [14]): 175

Molecule: Veltuzumab (hA20, humanized anti-CD20 IgG1, unconjugated) (antibody)
Median fluorescence (CD20 (human) [43]): 12.3
Median fluorescence (CD20 (human) [44]): 422
Median fluorescence (CD20 (human) [45]): 605
Median fluorescence (CD20 (human) [46]): 97.4
Median fluorescence (CD20 (human) [47]): 21.5
Median fluorescence (CD20 (human) [48]): 620
Median fluorescence (CD20 (human) [49]): 6.9
Median fluorescence (CD20 (human) [50]): 3.7
Median fluorescence (CD20 (human) [51]): 815

B2: hRS7 IgG (humanized RS7 anti-Trop-2 antibody, unconjugated) (antibody, V domains shown)
VH: QVQLQQSGSELKKPGASVKVSCKASGYTFTNYGMNWVKQAPGQGLKWMGWINTYTGEPTYTDDFKGRFAFSLDTSVSTAYLQISSLKADDTAVYFCARGGFGSSYWYFDVWGQGSLVTVSS
VL: DIQLTQSPSSLSASVGDRVSITCKASQDVSIAVAWYQQKPGKAPKLLIYSASYRYTGVPDRFSGSGSGTDFTLTISSLQPEDFAVYYCQQHYITPLTFGAGTKVEIKR
ADCC, specific lysis of BxPC-3 target cells by PBMCs (effector to target ratio 100:1; antibody at 33.3 nM) [52]: 8.5%

Further lines, results first:

Kd [2]: 0.8 nM
Molecule: Milatuzumab-CL2E-SN-38 (antibody)

MFI [15]: 16
MFI Ratio hLL1:bkgd [16]: 1.8
MFI Ratio hLL1:bkgd [17]: 28.8
MFI [18]: 144
MFI [19]: 8
MFI [20]: 143
MFI [21]: 248
MFI [22]: 185
MFI Ratio hLL1:bkgd [23]: 28.6
MFI Ratio hLL1:bkgd [24]: 31.2
MFI Ratio hLL1:bkgd [25]: 19.6
MFI [26]: 22
MFI [27]: 220
MFI Ratio hLL1:bkgd [28]: 28.5
MFI Ratio hLL1:bkgd [29]: 1.3
MFI [30]: 59
MFI Ratio hLL1:bkgd [31]: 1.6
MFI Ratio hLL1:bkgd [32]: 1.5
MFI [33]: 17
MFI [34]: 5
Kd [2]: 0.77 nM
MFI Ratio hLL1:bkgd [35]: 30.8
MFI Ratio hLL1:bkgd [36]: 49.6
MFI Ratio hLL1:bkgd [37]: 36.7
MFI Ratio hLL1:bkgd [38]: 2.1
MFI [39]: 156
MFI Ratio hLL1:bkgd [40]: 5.3
MFI [41]: 114
MFI [42]: 9
Molecule: Milatuzumab (hLL1, humanized anti-CD74 IgG1, unconjugated) (antibody)

Kd [2]: 0.59 nM
Molecule: Milatuzumab-CL2A-SN-38 (antibody)

Kd [1]: 1.2 nM
B1: hRS7-CL2-SN-38 (antibody, INN chains, looked up, V domains shown, part only)
VH: QVQLQQSGSELKKPGASVKVSCKASGYTFTNYGMNWVKQAPGQGLKWMGWINTYTGEPTYTDDFKGRFAFSLDTSVSTAYLQISSLKADDTAVYFCARGGFGSSYWYFDVWGQGSLVTVSS
VL: DIQLTQSPSSLSASVGDRVSITCKASQDVSIAVAWYQQKPGKAPKLLIYSASYRYTGVPDRFSGSGSGTDFTLTISSLQPEDFAVYYCQQHYITPLTFGAGTKVEIK
modifications: SN-38 via CL2 linker
